Assays:
Assay in all cases: pull-down
[1] = biological target: ELL2-F, affinity-purified (UniProt O00472 1-640)
[2] = biological target: T1, F-AFF4, wild type, affinity-purified (UniProt Q9UHB7 1-1163)
T1 sequence (looked up): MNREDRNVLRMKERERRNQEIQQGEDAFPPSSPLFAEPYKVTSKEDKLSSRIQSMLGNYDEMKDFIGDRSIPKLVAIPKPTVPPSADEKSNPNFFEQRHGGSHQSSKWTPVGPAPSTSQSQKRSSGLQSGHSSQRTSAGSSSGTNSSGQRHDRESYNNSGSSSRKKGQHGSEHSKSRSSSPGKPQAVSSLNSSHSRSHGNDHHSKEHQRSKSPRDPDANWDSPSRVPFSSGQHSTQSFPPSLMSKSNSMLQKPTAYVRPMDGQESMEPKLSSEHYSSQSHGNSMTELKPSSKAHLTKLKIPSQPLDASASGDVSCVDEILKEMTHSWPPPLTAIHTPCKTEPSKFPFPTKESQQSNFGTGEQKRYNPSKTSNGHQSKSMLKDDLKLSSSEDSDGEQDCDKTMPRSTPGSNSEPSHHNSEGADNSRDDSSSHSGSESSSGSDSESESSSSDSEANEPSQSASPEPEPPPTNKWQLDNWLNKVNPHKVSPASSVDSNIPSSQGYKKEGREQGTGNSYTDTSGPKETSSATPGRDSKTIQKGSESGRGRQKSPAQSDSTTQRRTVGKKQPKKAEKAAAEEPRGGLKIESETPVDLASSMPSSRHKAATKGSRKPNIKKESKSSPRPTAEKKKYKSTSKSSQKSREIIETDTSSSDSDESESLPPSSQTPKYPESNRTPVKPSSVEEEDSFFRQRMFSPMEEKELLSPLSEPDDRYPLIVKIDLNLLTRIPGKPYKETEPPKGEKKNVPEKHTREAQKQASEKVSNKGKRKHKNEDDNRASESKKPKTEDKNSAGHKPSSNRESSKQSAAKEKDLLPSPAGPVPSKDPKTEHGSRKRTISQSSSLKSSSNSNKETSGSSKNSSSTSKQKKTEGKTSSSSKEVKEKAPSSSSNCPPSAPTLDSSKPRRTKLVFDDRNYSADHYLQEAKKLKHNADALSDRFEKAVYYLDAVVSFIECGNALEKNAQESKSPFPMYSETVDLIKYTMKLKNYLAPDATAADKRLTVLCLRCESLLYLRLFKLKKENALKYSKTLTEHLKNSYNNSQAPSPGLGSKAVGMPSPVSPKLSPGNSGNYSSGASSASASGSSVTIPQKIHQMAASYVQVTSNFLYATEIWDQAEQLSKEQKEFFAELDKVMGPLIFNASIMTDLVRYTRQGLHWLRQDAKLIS

[3] = biological target: T2, F-AFF4(Δ301–400), affinity-purified (UniProt Q9UHB7 1-1163, Δ301–400)
T2 sequence (looked up): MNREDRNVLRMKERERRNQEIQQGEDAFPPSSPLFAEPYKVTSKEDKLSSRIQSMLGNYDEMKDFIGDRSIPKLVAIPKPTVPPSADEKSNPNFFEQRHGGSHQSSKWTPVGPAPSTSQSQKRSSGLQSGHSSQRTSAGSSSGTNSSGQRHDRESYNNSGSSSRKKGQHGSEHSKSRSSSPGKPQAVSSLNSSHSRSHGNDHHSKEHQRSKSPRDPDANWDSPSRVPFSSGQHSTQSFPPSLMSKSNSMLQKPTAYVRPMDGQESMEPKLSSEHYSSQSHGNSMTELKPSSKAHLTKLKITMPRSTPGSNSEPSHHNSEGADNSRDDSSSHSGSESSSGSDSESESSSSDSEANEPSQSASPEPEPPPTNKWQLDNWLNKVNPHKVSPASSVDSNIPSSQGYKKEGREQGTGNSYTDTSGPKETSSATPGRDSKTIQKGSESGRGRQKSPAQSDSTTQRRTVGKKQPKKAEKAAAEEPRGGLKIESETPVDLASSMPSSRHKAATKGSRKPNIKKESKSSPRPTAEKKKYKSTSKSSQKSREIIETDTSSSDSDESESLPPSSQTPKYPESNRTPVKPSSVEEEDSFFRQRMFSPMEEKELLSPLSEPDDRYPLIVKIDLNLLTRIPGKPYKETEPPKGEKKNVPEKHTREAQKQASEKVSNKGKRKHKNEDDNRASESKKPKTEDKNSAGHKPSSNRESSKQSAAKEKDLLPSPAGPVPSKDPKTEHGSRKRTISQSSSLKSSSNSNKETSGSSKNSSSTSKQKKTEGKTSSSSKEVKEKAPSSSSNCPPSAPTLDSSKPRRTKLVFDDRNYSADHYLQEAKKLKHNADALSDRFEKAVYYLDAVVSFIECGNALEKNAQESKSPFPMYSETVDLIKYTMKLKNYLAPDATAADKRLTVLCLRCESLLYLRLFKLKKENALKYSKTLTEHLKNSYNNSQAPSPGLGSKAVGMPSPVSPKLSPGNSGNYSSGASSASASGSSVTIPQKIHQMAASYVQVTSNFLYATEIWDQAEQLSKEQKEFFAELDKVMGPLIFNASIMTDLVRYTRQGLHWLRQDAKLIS

Measured: binding result

Sequence of ELL2-F, affinity-purified (O00472 whole entry): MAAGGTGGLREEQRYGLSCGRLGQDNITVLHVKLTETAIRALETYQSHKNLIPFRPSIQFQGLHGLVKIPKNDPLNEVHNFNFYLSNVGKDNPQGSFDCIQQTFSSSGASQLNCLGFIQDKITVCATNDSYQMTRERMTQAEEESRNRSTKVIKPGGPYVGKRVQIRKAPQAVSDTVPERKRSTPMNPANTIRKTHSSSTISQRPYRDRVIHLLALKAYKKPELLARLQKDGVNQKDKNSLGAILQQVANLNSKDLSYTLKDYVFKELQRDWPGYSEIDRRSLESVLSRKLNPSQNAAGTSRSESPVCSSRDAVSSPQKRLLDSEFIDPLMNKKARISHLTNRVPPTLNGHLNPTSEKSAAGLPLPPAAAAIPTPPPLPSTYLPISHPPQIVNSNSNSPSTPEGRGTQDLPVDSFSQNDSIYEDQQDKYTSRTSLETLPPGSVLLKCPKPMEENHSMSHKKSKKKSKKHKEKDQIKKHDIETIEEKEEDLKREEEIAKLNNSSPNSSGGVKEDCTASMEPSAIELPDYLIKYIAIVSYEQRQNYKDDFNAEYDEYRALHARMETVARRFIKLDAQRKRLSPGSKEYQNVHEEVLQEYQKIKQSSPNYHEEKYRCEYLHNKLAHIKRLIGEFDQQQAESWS

B1: HA-Siah1 immobilized on anti-HA beads (enzyme, human, UniProt Q8IUQ4-2 1-313, looked up)
chain: MTGKATPPSLYSWRGVLFTCLPAARTRKRKEMSRQTATALPTGTSKCPPSQRVPALTGTTASNNDLASLFECPVCFDYVLPPILQCQSGHLVCSNCRPKLTCCPTCRGPLGSIRNLAMEKVANSVLFPCKYASSGCEITLPHTEKADHEELCEFRPYSCPCPGASCKWQGSLDAVMPHLMHQHKSITTLQGEDIVFLATDINLPGAVDWVMMQSCFGFHFMLVLEKQEKYDGHQQFFAIVQLIGTRKQAENFAYRLELNGHRRRLTWEATPRSIHEGIATAIMNSDCLVFDTSIAQLFAENGNLGINVTISMC
binds: all assays above
